Source: patent US20180238915A1 (published 2018)
Where two headings read alike, the source gives them in different places. Blank lines part the entries; values can stand above or below the binder they belong to.

How the values were obtained:
[1] = biological target: T1, negatively modulated GCSF receptor (GCSFR(-)) (UniProt Q99062 25-621, modified by S-HyNic and conjugated through HyNic-4FB bonds to a 64-base DNA oligonucleotide (SEQ. ID 2, 5' C12 amino modifier); number and sites not stated)
T1 chain: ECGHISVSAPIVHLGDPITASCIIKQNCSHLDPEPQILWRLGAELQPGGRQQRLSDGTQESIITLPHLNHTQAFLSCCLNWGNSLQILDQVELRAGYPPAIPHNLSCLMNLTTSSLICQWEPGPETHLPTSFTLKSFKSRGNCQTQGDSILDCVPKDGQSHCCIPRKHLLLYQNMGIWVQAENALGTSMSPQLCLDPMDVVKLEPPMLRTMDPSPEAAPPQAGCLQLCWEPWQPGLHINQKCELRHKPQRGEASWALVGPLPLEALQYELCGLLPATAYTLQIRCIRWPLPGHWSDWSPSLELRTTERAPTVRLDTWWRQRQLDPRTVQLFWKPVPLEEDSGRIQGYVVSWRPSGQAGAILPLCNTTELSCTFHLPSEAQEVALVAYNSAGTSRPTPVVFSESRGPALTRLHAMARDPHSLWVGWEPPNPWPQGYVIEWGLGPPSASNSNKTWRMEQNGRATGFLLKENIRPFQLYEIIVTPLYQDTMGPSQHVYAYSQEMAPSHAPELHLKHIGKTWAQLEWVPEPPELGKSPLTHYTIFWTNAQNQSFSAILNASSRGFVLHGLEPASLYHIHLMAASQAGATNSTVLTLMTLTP

receptor [2] = assay: BLI
receptor [3] = biological target: receptor

koff [1]: 5e-05 s⁻¹
B1: labeled G-CSF (Alexa Fluor 488) (ligand)
chain: TPLGPASSLPQSFLLKCLEQVRKIQGDGAALQEKLCATYKLCHPEELVLLGHSLGIPWAPLSSCPSQALQLAGCLSQLHSGLFLYQGLLQALEGISPELGPTLDTLQLDVADFATTIWQQMEELGMAPALQPTQGAMPAFASAFQRRAGGVLVASHLQSFLEVSYRVLRHLAQP
modifications: Alexa Fluor 488 label (carboxylic acid succinimidyl ester); sites not stated

koff (receptor [2]): < 1e-06 s⁻¹ | koff (receptor [3]): 3.8e-05 s⁻¹
B2: G-CSF (ligand)
chain: B1 chain
